First the molecules themselves.
B1: HigB2 (protein)
chain: MKSVFVESTIFEKYRDEYLSDEEYRLFQAELMLNPKLGDVIQGTGGLRKIRVASKGKGKRGGSRIIYYFLDEKRRFYLLTIYGKNEMSDLNANQRKQLMAFMEAWRNEQS
B2: HigA2 (protein)
chain: MSNRDLFAELSSALVEAKQHSEGKLTLKTHHVNDVGELNISPDEIVSIREQFNMSRGVFARLLHTSSRTLENWEQGRSVPNGQAVTLLKLVQRHPETLSHIAEL

Common to all, as to experiment: competition
For one experiment, the target named is HigA2 3-33 peptide 3-33 (Vibrio cholerae, UniProt Q9KMA5).
Another experiment has as its target HigA2 3-23 peptide 3-23 (Vibrio cholerae, UniProt Q9KMA5).
In the experiment “HigB2” the target is B1.

The term Kd denotes the free concentration of one partner at which half of the binding sites on the other are occupied at equilibrium, for simple one-to-one binding. High values mean lower affinity, low ones higher affinity. Regarding B1, the Kd is ~0.127 nM in the experiment with HigA2 3-33 peptide 3-33 and 0.003 nM in the experiment with HigA2 3-23 peptide 3-23.

For the molecule B2, the Kd with HigB2 came out at 0.016 nM.
